Reference: US7341836B2, “Modified cyclic nucleotide gated ion channels” (The Regents of the University of Colorado, priority 2001, dated 2008)
Entries after “also recorded” stand apart in the source; their conditions may differ.

Tests used:
[1] = system: rat olfactory CNG channel α subunit; assay: Excised inside-out patch recordings, cyclic nucleotide dose-response of CNG channel constructs; type: biochemical; details: for Imax^cGMP/Imax^cAMP: current at saturating cGMP divided by current at saturating cAMP
Procedure: (§1) As described in greater detail herein, the effects of modifications to CNG channels were assessed using the Hill equation, I/Imax=[cNMP]^N/([cNMP]^N+K1/2^N), where I/Imax is the fraction of maximal current, cNMP represents cyclic nucleotide, K1/2 is the concentration that gives half-maximal current, and N is the Hill coefficient, an index of cooperativity. I/Imax^cGMP/Imax^cAMP is the current induced by saturating cGMP divided by the current induced by saturating cAMP. Data (mean±standard deviation of three experiments) were obtained from excised membrane patches using standard patch clamp techniques.
(§2) To assess the cyclic nucleotide sensitivity of different CNG channel constructs, excised, inside-out patch recordings were made at room temperature (20-21° C.) using an Axopatch-200A patch clamp amplifier (Axon Instruments Inc.). Pipettes were pulled from borosilicate glass and heat polished. Pipettes were lowered onto the cells and gigaohm seals were formed. Patches were excised by shearing cells from the pipette with a jet of liquid. Ionic currents were elicited by 250 ms pulses to membrane potentials of +50 and −50 mV from a holding potential of 0 mV. Current records were sampled at five times the filter setting and stored on an IBM compatible computer. Records were corrected for errors due to series resistance (pipette resistance was 4.1 ±0.1 MΩ). Both the pipette and bath solutions contained (mM): 130 NaCl, 2 HEPES, 0.02 EDTA, and 1 EGTA, pH 7.6. Cyclic nucleotide-induced currents were obtained from the difference between currents in the presence and absence of cyclic nucleotides. Dose response curves for cAMP and cGMP were obtained at +50 and −50 mV in the same patch. The effects of the modifications were assessed using the Hill equation, I/Imax=[cNMP]^N/([cNMP]^N+K1/2^N), where I/Imax is the fraction of maximal current, cNMP represents cyclic nucleotide, K1/2 is the concentration that gives half-maximal current, and N is the Hill coefficient, an index of cooperativity. K1/2 and N for cAMP were 36±5 μM, 10±2 μM, 1.0±0.3 μM, and […] for WT, E583M, C460/E583M, and Δ61-90/C460W/E583M channels, respectively (See, Rich et al., J. Gen. Physiol. [2001], supra).
(§3) The cyclic nucleotide sensitivity of the C460W/E583M CNG channel was assessed in excised, inside-out patches as known in the art (See, Rich et al. [2001], supra). K1/2 and N were 1.1±0.3 μM and 2.1±0.4 at +50 mV; and 1.0±0.3 μM and 2.0 ±0.3 at −50 mV (n=11). With these values, the cAMP concentration could be calculated from currents measured in perforated patch experiments (Rich et al. Proc. Natl. Acad. Sci. [2001], supra).

[2] = system: HEK-293 cells expressing C460W/E583M channels; assay: PGE1-induced cAMP responses in cell populations (Ca2+ influx through C460W/E583M channels); type: cell-based, human; details: 100 nM PGE1
Description: In this Example, experiments conducted to detect cAMP levels in cells are described. Changes in cyclic AMP concentrations in response to PGE1 stimulation were monitored in HEK-293 cells by measuring Ca^2+ influx through C460W/E583M CNG channels (See, Rich et al. [2001], supra). HEK-293 cells express a variety of extracellular receptors including prostanoid receptors (Thomas and Hoffman, Mol. Pharmacol., 49:907-914 [1996]), and the cAMP-specific PDE type IV (Rich et al. [2001], supra; and Hoffmann et al., EMBO J., 18:893-903 [1999]). Based on PCR analysis, these cells also appear to express AC types II, […], VI, and VII, (Hellevuo et al., Biochem. Biophys. Res. Commun., 192:311-318 [1993]). C460W/E583M channels were expressed heterologously using an adenovirus construct (See, Rich et al. [2001], supra). The Ca^2+ permeability of the channel was used to detect changes in local cAMP concentration; the fluorescent indicator fura-2 was used to monitor Ca^2+ entry. With this approach, incremental changes in cAMP concentration are readily detected as changes in relative Ca^2+ influx rates through C460W/E583M channels (See, Rich et al., [2001], supra).
Transient responses were observed over a large range of PGE1 concentrations, from 0.01 to 10 μM (FIG. 17, Panel A). […] The decline was unlikely to result primarily from a reduction in AC activity (e.g., receptor desensitization), because of the sustained accumulation of total cellular cAMP in the presence of IBMX (See, FIG. 16, Panel B). To verify this, 100 μM IBMX was added at various times after PGE1 application.
To test whether PGE1 did indeed increase the total PDE activity, 100 nM PGE1 were added at various times after the initial application of 100 nM PGE1 (a subsaturating concentration). There was a negligible response to the subsequent addition of PGE1, even after 50 min (FIG. 17, Panel D). Taken together, the results of the experiments shown in FIG. 17, Panels C and D argue that the cAMP transient is due to an initial increase in AC activity, followed by a more profound increase in PDE activity. […] As indicated herein, these processes are crucial for the generation of spatially and temporally distinct cAMP signals.

[3] = system: HEK-293 cells expressing C460W/E583M channels; assay: Single-cell local cAMP measurement, perforated patch or whole cell currents through C460W/E583M channels; type: cell-based, human; details: 1 μM PGE1
Procedure: Single-cell cAMP measurements were made using either the perforated patch or whole cell patch clamp technique (Rich et al. [2000], supra). In the perforated patch configuration, the pore forming antibiotic nystatin was added to the pipette solution to gain electrical access to the cell's interior while retaining divalent cations and larger molecules like cAMP in the cell. Recordings were made using an Axopatch-200A patch clamp amplifier (Axon Instruments). Pipette resistance was limited to 5 ΩM and averaged 3.4±0.5 ΩM (measurements provided herein are expressed as mean±standard deviation). In the perforated patch configuration, a steady access resistance was obtained 5-15 minutes following seal formation. […] These quantities were monitored throughout the experiments to ensure stable electrical access was maintained. […] The time to exchange the extracellular solution was measured by applying a 140 mM KCl solution to a depolarized cell (+50 mV), and monitoring changes in current through endogenous voltage-gated K^+ channels; for each experiment, it was less than 60 ms. […] In most of these experiments, the pipette solution also contained 1 mM cAMP; at the end of the experiment the maximal cAMP-induced current could be measured by rupturing the cell membrane at the tip of the pipette with suction, allowing saturating cAMP to diffuse to the channels (See, Rich et al. [2000], supra). […]

[4] = biological target: T1, rat olfactory CNG channel α subunit (Rattus norvegicus, UniProt Q00195, C460W/E583M); assay: Excised inside-out patch recordings, cyclic nucleotide dose-response of CNG channel constructs; type: biochemical; details: for N: Hill coefficient, n=11, Example 9
T1 construct: expressed in transfected cells; host or cells: HEK-293 (adenovirus infection)
T1 sequence (Q00195 1-664 C460W/E583M): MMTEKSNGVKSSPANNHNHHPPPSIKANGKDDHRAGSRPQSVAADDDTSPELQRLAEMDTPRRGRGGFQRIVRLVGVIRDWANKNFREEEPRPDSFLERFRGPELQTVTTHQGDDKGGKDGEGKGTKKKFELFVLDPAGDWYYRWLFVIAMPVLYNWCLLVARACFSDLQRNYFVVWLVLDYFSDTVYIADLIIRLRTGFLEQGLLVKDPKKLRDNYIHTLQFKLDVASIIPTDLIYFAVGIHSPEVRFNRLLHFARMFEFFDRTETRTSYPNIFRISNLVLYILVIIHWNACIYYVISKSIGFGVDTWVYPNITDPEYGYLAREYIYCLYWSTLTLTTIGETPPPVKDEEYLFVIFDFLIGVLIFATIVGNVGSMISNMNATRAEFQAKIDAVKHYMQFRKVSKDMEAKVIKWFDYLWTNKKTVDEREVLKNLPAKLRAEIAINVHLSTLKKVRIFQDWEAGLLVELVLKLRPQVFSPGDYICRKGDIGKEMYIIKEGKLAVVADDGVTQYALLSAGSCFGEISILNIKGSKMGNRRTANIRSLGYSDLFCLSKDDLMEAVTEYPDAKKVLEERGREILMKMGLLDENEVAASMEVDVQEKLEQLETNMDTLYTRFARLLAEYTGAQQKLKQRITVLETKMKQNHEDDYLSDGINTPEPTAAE
Procedure: as §1, §2, §3

[5] = system: HEK-293 cells expressing CNG channels; assay: Forskolin-induced cAMP accumulation monitored by Ca2+ influx (fura-2) through expressed CNG channels; type: cell-based, human; details: 100 μM IBMX; forskolin 0-50 μM
Procedure: Next, experiments were conducted to assess the ability of each channel construct to detect increases in local cAMP concentration. Changes in cAMP concentration were detected using fura-2 to monitor Ca^2+ influx through CNG channels, as described in the Examples. Ca^2+ influx induced by different concentrations of forskolin, an AC activator, in the presence of 100 μM IBMX, a nonselective PDE inhibitor was measured. This approach allowed comparisons to be made between the cAMP sensitivities of the different channels to changes in cAMP, regardless of variations in expression levels between experiments. In HEK-293 cells expressing the WT channel, addition of forskolin was followed by a brief delay and an increase in Ca^2+ influx (See, FIG. 7, Panel A). The delay decreased and the rate of Ca^2+ influx increased in a dose-dependent manner. Neither effect was saturated at 50 μM forskolin. In cells expressing the E583M channel, addition of forskolin was also followed by a brief delay and an increase in Ca^2+ influx (FIG. 7, Panel B). As with the WT channel, the delay and the initial rate of Ca^2+ influx were dose-dependent. […] In cells expressing the Δ61-90/C460W/E583M channel, addition of forskolin caused similar increases in Ca^2+ influx as the E583M channel, including saturation of the delay and rate of influx at 20 μM (compare FIG. 7, Panel B with FIG. 7, Panel D). The increased response of the modified channels to forskolin treatment is consistent with the apparent cAMP affinities measured in excised patches in the absence of Ca^2+-CaM (C460W/E583M>E583M˜Δ61-90/C460W/E583>WT channels). There are several factors that may have contributed to the apparent lack of a Ca^2+-CaM effect on the channels.
Briefly, HEK-293 were maintained in MEM (Life Technologies Inc.) supplemented with 26.2 mM NaHCO3, 10% (v/v) fetal bovine serum (Gemini), penicillin (50 μg/mL), and streptomycin ([…]), pH 7.0, at 37° C. in a humidified atmosphere of 95% air and 5% CO2. Cells were plated at ˜60% confluence in 100 mm culture dishes twenty-four hours prior to infection with the CNG-channel-encoding adenovirus constructs (multiplicity of infection=10 plaque forming units per cell). […] Twenty-four hours post-infection cells were detached with phosphate-buffered saline containing 0.03% EDTA, resuspended in serum-containing medium, and assayed within 12 hours.

## CCCCC[C@H](O)/C=C/[C@H]1[C@H](O)CC(=O)[C@@H]1CCCCCCC(=O)O [PGE1, prostaglandin E1]
[1]; 100 μM IBMX, 1 μM PGE1
  effect on CNG channel activity in excised membrane patches: no direct effect on channels; also recorded: no change in current was observed
[2]
  slopes of the initial PGE1-induced responses: 0.0038 ± 0.0003 s⁻¹
[3]; five cells
  average amplitude of the cAMP signal: 0.7 ± 0.4 µM
[3]; perforated patch, −20 mV, six cells
  width at half height of the cAMP response: 87 ± 53 s

B1: C460W/E583M: modified rat olfactory cyclic nucleotide-gated ion channel containing the C460W/E583M mutation, SEQ ID NO:6 (protein, listed as Rattus norvegicus)
chain: T1 sequence (Q00195 1-664 C460W/E583M)
[4]
  lower K1/2 for cAMP than the E583M channel: ~10 fold
[4]; +50 mV
  N: 2.1±0.4
[4]; −50 mV
  N: 2.0 ±0.3
[1]; +50 mV
  Imax^cGMP/Imax^cAMP: 0.84 ± 0.10
[1]; −50 mV
  Imax^cGMP/Imax^cAMP: 0.50 ± 0.10
[5]
  forskolin concentration at which delay and rate of Ca2+ influx saturated: 5 µM
